Experimental data taken from paper doi:10.1101/2022.02.05.479199 (bioRxiv, 2022).

Molecular target: Replication protein A (Saccharomyces cerevisiae RPA) (S. cerevisiae, UniProt P22336;P26754;P26755)
Assay: AUC

Sequence of Replication protein A (Saccharomyces cerevisiae RPA) (P22336 whole entry, chain 1 of 3): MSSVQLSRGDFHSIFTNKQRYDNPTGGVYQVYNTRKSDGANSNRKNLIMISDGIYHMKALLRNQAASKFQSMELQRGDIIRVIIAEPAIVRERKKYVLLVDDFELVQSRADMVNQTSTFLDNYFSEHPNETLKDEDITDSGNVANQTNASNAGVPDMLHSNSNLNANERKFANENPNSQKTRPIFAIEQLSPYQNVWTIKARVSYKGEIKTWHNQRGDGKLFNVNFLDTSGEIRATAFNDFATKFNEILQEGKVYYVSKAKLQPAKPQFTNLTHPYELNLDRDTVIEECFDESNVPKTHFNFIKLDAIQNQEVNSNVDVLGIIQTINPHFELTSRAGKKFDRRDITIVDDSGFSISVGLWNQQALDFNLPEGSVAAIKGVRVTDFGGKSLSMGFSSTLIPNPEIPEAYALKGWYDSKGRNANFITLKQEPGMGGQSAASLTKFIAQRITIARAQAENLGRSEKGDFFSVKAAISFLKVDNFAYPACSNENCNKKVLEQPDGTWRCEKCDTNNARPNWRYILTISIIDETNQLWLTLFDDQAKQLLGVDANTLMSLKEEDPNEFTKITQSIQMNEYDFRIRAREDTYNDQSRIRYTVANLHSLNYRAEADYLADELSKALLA
Sequence of Replication protein A (Saccharomyces cerevisiae RPA) (P26754 whole entry, chain 2 of 3): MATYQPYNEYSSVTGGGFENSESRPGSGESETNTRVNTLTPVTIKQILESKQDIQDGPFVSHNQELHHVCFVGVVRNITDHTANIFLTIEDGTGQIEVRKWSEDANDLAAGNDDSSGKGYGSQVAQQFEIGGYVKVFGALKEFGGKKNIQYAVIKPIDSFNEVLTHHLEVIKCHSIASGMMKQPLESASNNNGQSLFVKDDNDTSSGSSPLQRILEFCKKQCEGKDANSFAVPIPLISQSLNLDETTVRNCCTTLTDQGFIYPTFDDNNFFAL
Sequence of Replication protein A (Saccharomyces cerevisiae RPA) (P26755 whole entry, chain 3 of 3): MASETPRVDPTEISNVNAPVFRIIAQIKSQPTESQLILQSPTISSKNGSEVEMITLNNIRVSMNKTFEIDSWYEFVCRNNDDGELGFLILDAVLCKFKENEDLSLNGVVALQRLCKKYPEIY

B1: Rtt105^Cy5 (natural protein)
chain: MYSNHNLNSDDCSFDWNEEKAAELQRTGVSFDRSLTPQSLRTSTRRLSEENKQQSGTMHIDTSPSVVSDIISSRRDRSQDFFGPHSSSPIAPSERQRADQRSRLESMRLTRRRDKMTKVRGGLEKMEEMIMQGEHLREMQRLKQEAQKNALPSDMAEYMEWQNNEDLEDDELLAFIEKQETYKNELEHFLNNANKNVYENNSYPNSHT
modifications: Cy5 (maleimide) on Cys-12
- binding result: binds
